Assay results taken from the MegaScale stability set (Tsuboyama et al. 2023).

B1: EEHEE_rd3_0130 (parent)
chain: TKIIVNGKTFTAPTEEEAQKIAEKLAKKAGLTVHKKNGTFELK

Variants of: B1
Experiment: folding stability dG (cDNA display proteolysis); higher = more stable
Conditions: PBS, room temperature

| Variant | folding stability dG |
| --- | --- |
| TKIIVNGKSFTAPTEEEAQKIAEKLAKKAGLTVHKKNGTFELK [T9S] | 0.461 kcal/mol |
| TKIIVNGKCFTAPTEEEAQKIAEKLAKKAGLTVHKKNGTFELK [T9C] | 1.66 kcal/mol |
| TKIIVNGKNFTAPTEEEAQKIAEKLAKKAGLTVHKKNGTFELK [T9N] | -0.378 kcal/mol |
| TKIIVNGKLFTAPTEEEAQKIAEKLAKKAGLTVHKKNGTFELK [T9L] | 0.562 kcal/mol |
| TKIIVNGKWFTAPTEEEAQKIAEKLAKKAGLTVHKKNGTFELK [T9W] | 0.968 kcal/mol |
| TKIIVNGKFFTAPTEEEAQKIAEKLAKKAGLTVHKKNGTFELK [T9F] | 0.699 kcal/mol |
| TKIIVNGKKFTAPTEEEAQKIAEKLAKKAGLTVHKKNGTFELK [T9K] | 0.007 kcal/mol |
| TKIIVNGKRFTAPTEEEAQKIAEKLAKKAGLTVHKKNGTFELK [T9R] | -0.066 kcal/mol |
| TKIIVNGKMFTAPTEEEAQKIAEKLAKKAGLTVHKKNGTFELK [T9M] | 0.652 kcal/mol |
| TKIIVNGKQFTAPTEEEAQKIAEKLAKKAGLTVHKKNGTFELK [T9Q] | 0.38 kcal/mol |
| TKIIVNGKGFTAPTEEEAQKIAEKLAKKAGLTVHKKNGTFELK [T9G] | -0.452 kcal/mol |
| TKIIVNGKAFTAPTEEEAQKIAEKLAKKAGLTVHKKNGTFELK [T9A] | 0.394 kcal/mol |
| TKIIVNGKPFTAPTEEEAQKIAEKLAKKAGLTVHKKNGTFELK [T9P] | -0.619 kcal/mol |
| TKIIVNGKHFTAPTEEEAQKIAEKLAKKAGLTVHKKNGTFELK [T9H] | 0.114 kcal/mol |
| TKITVNGKTFTAPTEEEAQKIAEKLAKKAGLTVHKKNGTFELK [I4T] | 0.449 kcal/mol |
| TKIQVNGKTFTAPTEEEAQKIAEKLAKKAGLTVHKKNGTFELK [I4Q] | 0.068 kcal/mol |
| TKIWVNGKTFTAPTEEEAQKIAEKLAKKAGLTVHKKNGTFELK [I4W] | 0.365 kcal/mol |
| TKIRVNGKTFTAPTEEEAQKIAEKLAKKAGLTVHKKNGTFELK [I4R] | 0.615 kcal/mol |
| TKIVVNGKTFTAPTEEEAQKIAEKLAKKAGLTVHKKNGTFELK [I4V] | 0.695 kcal/mol |
| TKISVNGKTFTAPTEEEAQKIAEKLAKKAGLTVHKKNGTFELK [I4S] | 0.124 kcal/mol |

| Variant | folding stability dG |
| --- | --- |
| TKIYVNGKTFTAPTEEEAQKIAEKLAKKAGLTVHKKNGTFELK [I4Y] | 0.689 kcal/mol |
| TKIPVNGKTFTAPTEEEAQKIAEKLAKKAGLTVHKKNGTFELK [I4P] | -0.499 kcal/mol |
| TKIIVNGKTFIAPTEEEAQKIAEKLAKKAGLTVHKKNGTFELK [T11I] | 1.03 kcal/mol |
| TKIIVNGKTFFAPTEEEAQKIAEKLAKKAGLTVHKKNGTFELK [T11F] | 1.38 kcal/mol |
| TKIIVNGKTFGAPTEEEAQKIAEKLAKKAGLTVHKKNGTFELK [T11G] | -0.004 kcal/mol |
| TKIIVNGKTFEAPTEEEAQKIAEKLAKKAGLTVHKKNGTFELK [T11E] | 0.261 kcal/mol |
| TKIIVNGKTFMAPTEEEAQKIAEKLAKKAGLTVHKKNGTFELK [T11M] | 0.947 kcal/mol |
| TKIIVNGKTFDAPTEEEAQKIAEKLAKKAGLTVHKKNGTFELK [T11D] | -0.3 kcal/mol |
| TKIIVNGKTFCAPTEEEAQKIAEKLAKKAGLTVHKKNGTFELK [T11C] | 1.63 kcal/mol |
| TKIIVNGKTFKAPTEEEAQKIAEKLAKKAGLTVHKKNGTFELK [T11K] | 0.248 kcal/mol |
| TKIIVNGKTFAAPTEEEAQKIAEKLAKKAGLTVHKKNGTFELK [T11A] | 0.154 kcal/mol |
| TKIIVNGKTFHAPTEEEAQKIAEKLAKKAGLTVHKKNGTFELK [T11H] | 0.697 kcal/mol |
| TKIIVNGKTFLAPTEEEAQKIAEKLAKKAGLTVHKKNGTFELK [T11L] | 0.81 kcal/mol |
| TKIIVNGKTFNAPTEEEAQKIAEKLAKKAGLTVHKKNGTFELK [T11N] | 0.328 kcal/mol |
| TKIIVNGKTLTAPTEEEAQKIAEKLAKKAGLTVHKKNGTFELK [F10L] | 0.392 kcal/mol |
| TKIIVNGKTITAPTEEEAQKIAEKLAKKAGLTVHKKNGTFELK [F10I] | 0.454 kcal/mol |
| TKIIVNGKTYTAPTEEEAQKIAEKLAKKAGLTVHKKNGTFELK [F10Y] | 0.851 kcal/mol |
| TKIIVNGKTWTAPTEEEAQKIAEKLAKKAGLTVHKKNGTFELK [F10W] | 0.82 kcal/mol |
| TKIIVNGKTMTAPTEEEAQKIAEKLAKKAGLTVHKKNGTFELK [F10M] | 0.05 kcal/mol |
| TKIIVNGKTVTAPTEEEAQKIAEKLAKKAGLTVHKKNGTFELK [F10V] | -0.708 kcal/mol |

| Variant | folding stability dG |
| --- | --- |
| TKIIVGGKTFTAPTEEEAQKIAEKLAKKAGLTVHKKNGTFELK [N6G] | 1.02 kcal/mol |
| TKIIVAGKTFTAPTEEEAQKIAEKLAKKAGLTVHKKNGTFELK [N6A] | 0.745 kcal/mol |
| TKIIVRGKTFTAPTEEEAQKIAEKLAKKAGLTVHKKNGTFELK [N6R] | 0.555 kcal/mol |
| TKIIVPGKTFTAPTEEEAQKIAEKLAKKAGLTVHKKNGTFELK [N6P] | -0.076 kcal/mol |
| TKIIVCGKTFTAPTEEEAQKIAEKLAKKAGLTVHKKNGTFELK [N6C] | 2.05 kcal/mol |
| TKIIVIGKTFTAPTEEEAQKIAEKLAKKAGLTVHKKNGTFELK [N6I] | 0.222 kcal/mol |
| TKIIVFGKTFTAPTEEEAQKIAEKLAKKAGLTVHKKNGTFELK [N6F] | 1.61 kcal/mol |
| TKIIVKGKTFTAPTEEEAQKIAEKLAKKAGLTVHKKNGTFELK [N6K] | 0.266 kcal/mol |
| TKIIVLGKTFTAPTEEEAQKIAEKLAKKAGLTVHKKNGTFELK [N6L] | 0.861 kcal/mol |
| TKIIVDGKTFTAPTEEEAQKIAEKLAKKAGLTVHKKNGTFELK [N6D] | 0.319 kcal/mol |
| TKIIVHGKTFTAPTEEEAQKIAEKLAKKAGLTVHKKNGTFELK [N6H] | 0.793 kcal/mol |
| TKIIVTGKTFTAPTEEEAQKIAEKLAKKAGLTVHKKNGTFELK [N6T] | -0.318 kcal/mol |
| TKIIVYGKTFTAPTEEEAQKIAEKLAKKAGLTVHKKNGTFELK [N6Y] | 1.42 kcal/mol |
| TKIIVVGKTFTAPTEEEAQKIAEKLAKKAGLTVHKKNGTFELK [N6V] | -0.097 kcal/mol |
| TKIIVWGKTFTAPTEEEAQKIAEKLAKKAGLTVHKKNGTFELK [N6W] | 1.47 kcal/mol |
| TKIIVEGKTFTAPTEEEAQKIAEKLAKKAGLTVHKKNGTFELK [N6E] | 0.325 kcal/mol |
| TKIIVQGKTFTAPTEEEAQKIAEKLAKKAGLTVHKKNGTFELK [N6Q] | 0.329 kcal/mol |
| TKIIVMGKTFTAPTEEEAQKIAEKLAKKAGLTVHKKNGTFELK [N6M] | 0.863 kcal/mol |
| TKIIVSGKTFTAPTEEEAQKIAEKLAKKAGLTVHKKNGTFELK [N6S] | 0.36 kcal/mol |
